# From PMC3985065 (Protein expression and purification, 2014)
# T1: mouse glycine N-acyltransferase (mGLYAT) (Mus musculus, UniProt Q91XE0)
# T1 sequence (Q91XE0 1-296): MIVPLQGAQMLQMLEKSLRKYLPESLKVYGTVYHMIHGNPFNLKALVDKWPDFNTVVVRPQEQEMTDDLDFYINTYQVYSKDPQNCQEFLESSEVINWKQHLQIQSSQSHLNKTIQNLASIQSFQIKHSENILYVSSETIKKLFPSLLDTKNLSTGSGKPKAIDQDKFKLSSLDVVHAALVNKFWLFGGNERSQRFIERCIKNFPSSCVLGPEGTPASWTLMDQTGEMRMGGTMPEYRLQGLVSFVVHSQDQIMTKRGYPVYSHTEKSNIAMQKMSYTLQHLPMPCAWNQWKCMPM
# What was measured:
# [1] = molecular target: T1, mouse glycine N-acyltransferase (mGLYAT); experiment: DTNB assay of CoA-SH release, […] benzoyl-CoA and […] glycine; type: biochemical
# [2] = substrate: CC(=O)SCCNC(=O)CCNC(=O)[C@H](O)C(C)(C)COP(=O)(O)OP(=O)(O)OC[C@H]1O[C@@H](n2cnc3c(N)ncnc32)[C@H](O)[C@@H]1OP(=O)(O)O; experiment: purified protein; details: amino acceptor substrate
# [3] = substrate: NCC(=O)O; experiment: purified protein; type: biochemical, Mus musculus; details: benzoyl-CoA (co-substrate) amino donor substrate
# [4] = substrate: CCOC(=O)CN; experiment: purified protein; type: biochemical, Mus musculus; details: benzoyl-CoA (co-substrate) amino donor substrate
# [5] = substrate: CCCCCC(=O)SCCNC(=O)CCNC(=O)[C@H](O)C(C)(C)COP(=O)(O)OP(=O)(O)OC[C@H]1O[C@@H](n2cnc3c(N)ncnc32)[C@H](O)[C@@H]1OP(=O)(O)O; experiment: purified protein; type: biochemical, Mus musculus; details: amino acceptor substrate
# [6] = substrate: CC(C)(COP(=O)(O)OP(=O)(O)OC[C@H]1O[C@@H](n2cnc3c(N)ncnc32)[C@H](O)[C@@H]1OP(=O)(O)O)[C@@H](O)C(=O)NCCC(=O)NCCSC(=O)c1ccccc1; experiment: purified protein; type: biochemical, Mus musculus; details: amino acceptor substrate
# [7] = substrate: CCCC(=O)SCCNC(=O)CCNC(=O)[C@H](O)C(C)(C)COP(=O)(O)OP(=O)(O)OC[C@H]1O[C@@H](n2cnc3c(N)ncnc32)[C@H](O)[C@@H]1OP(=O)(O)O; experiment: purified protein; type: biochemical, Mus musculus; details: amino acceptor substrate
# [8] = substrate: COC(=O)CN; experiment: purified protein; type: biochemical, Mus musculus; details: benzoyl-CoA (co-substrate) amino donor substrate
molecule,measurement,setting,value
CCCCCCCC/C=C\CCCCCCCC(=O)SCCNC(=O)CCNC(=O)[C@H](O)C(C)(C)COP(=O)(O)OP(=O)(O)OC[C@H]1O[C@@H](n2cnc3c(N)ncnc32)[C@H](O)[C@@H]1OP(=O)(O)O [Oleoyl-CoA],IC50,[1],0.021 ± 0.0034 mM
O=C(O)CO [Glycolic acid],IC50,[1],58 ± 4.9 mM
mouse glycine N-acyltransferase (mGLYAT) (Mus musculus) (protein) MIVPLQGAQMLQMLEKSLRKYLPESLKVYGTVYHMIHGNPFNLKALVDKWPDFNTVVVRPQEQEMTDDLDFYINTYQVYSKDPQNCQEFLESSEVINWKQHLQIQSSQSHLNKTIQNLASIQSFQIKHSENILYVSSETIKKLFPSLLDTKNLSTGSGKPKAIDQDKFKLSSLDVVHAALVNKFWLFGGNERSQRFIERCIKNFPSSCVLGPEGTPASWTLMDQTGEMRMGGTMPEYRLQGLVSFVVHSQDQIMTKRGYPVYSHTEKSNIAMQKMSYTLQHLPMPCAWNQWKCMPM,Km,[2],209 ± 43 µM
same,kcat,[2],0.8 s⁻¹
same,kcat/Km,[2],3800 M⁻¹ s⁻¹
same,Km,[3],6100 ± 1200 µM
same,kcat,[3],3.2 ± 0.12 s⁻¹
same,kcat/Km,[3],520 ± 20 M⁻¹ s⁻¹
same,Km,[4],9700 ± 1700 µM
same,kcat,[4],0.57 ± 0.023 s⁻¹
same,kcat/Km,[4],59 ± 2.3 M⁻¹ s⁻¹
same,Km,[5],45 ± 3.0 µM
same,kcat,[5],4.6 ± 0.085 s⁻¹
same,kcat/Km,[5],100000 ± 1900 M⁻¹ s⁻¹
same,Km,[6],9.4 ± 14 µM
same,kcat,[6],4.2 ± 0.25 s⁻¹
same,kcat/Km,[6],450000 ± 27000 M⁻¹ s⁻¹
same,Km,[7],52 ± 7.9 µM
same,kcat,[7],15 ± 0.43 s⁻¹
same,kcat/Km,[7],290000 ± 8200 M⁻¹ s⁻¹
same,Km,[8],29000 ± 9100 µM
same,kcat,[8],1 ± 0.12 s⁻¹
same,kcat/Km,[8],35 ± 4.1 M⁻¹ s⁻¹
